Source: patent publication US20230042913A1 (COUNCIL OF THE QUEENSLAND INSTITUTE OF MEDICAL RESEARCH, published 2023)

T1: mouse RANKL transiently expressed by HEK-293 cells (mouse, UniProt O35235 1-316)
T1 construct: whole, on cells; also called muRANKL
T1 sequence (looked up): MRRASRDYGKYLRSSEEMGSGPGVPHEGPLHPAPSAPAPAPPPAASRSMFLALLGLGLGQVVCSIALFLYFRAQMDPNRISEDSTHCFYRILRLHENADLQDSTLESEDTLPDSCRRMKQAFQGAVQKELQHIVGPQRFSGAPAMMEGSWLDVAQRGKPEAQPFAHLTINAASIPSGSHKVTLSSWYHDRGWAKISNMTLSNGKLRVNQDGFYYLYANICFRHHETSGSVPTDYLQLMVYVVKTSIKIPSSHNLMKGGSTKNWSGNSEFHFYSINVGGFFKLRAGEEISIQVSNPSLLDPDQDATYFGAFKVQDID

T2: mouse PD-1 transiently expressed by HEK-293 cells (mouse, UniProt Q02242 25-288)
T2 construct: whole, on cells; also called muPD-1
T2 sequence (looked up): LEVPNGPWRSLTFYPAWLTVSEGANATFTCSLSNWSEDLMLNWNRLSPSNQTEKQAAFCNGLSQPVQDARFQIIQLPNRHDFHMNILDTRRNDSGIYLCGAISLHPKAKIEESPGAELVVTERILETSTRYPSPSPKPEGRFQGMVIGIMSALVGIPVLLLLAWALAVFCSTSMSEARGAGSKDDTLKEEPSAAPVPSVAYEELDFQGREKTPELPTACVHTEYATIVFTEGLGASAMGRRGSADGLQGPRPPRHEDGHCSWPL

B1: anti-RANKL mAb IK22-5 (rat IgG2a) (antibody, V domains shown)
VH: QVQLKESGPGLVLSSATLSLTCTVSGFSLTNYDVSWIRHLPGKGLEWMGGVWLSGNTEYNSDFKSRLSISRDISKSQVFLKMSNLKIEDTGTYYCARDIGTTSDYWGQGVTVTVSS
VL: DIQVTQSPSFLSASVGDRVTFNCKTSQNINKYLAWYQAKFGEGPKLLIFNADSLQSGIPPRFSGSGSGTDFTLTISGLQPEDFATYFCLQYNSWPTFGSGTKLEIK
notes: Rat IgG2a monoclonal antibody; also called anti-muRANKL antibody (IK22-5 rat IgG2a)
B2: bispecific anti-RANKL/PD-1 antibody (IK22-5/RMP1-14) (bispecific antibody)
heavy 1: QVQLKESGPGLVLSSATLSLTCTVSGFSLTNYDVSWIRHLPGKGLEWMGGVWLSGNTEYNSDFKSRLSISRDISKSQVFLKMSNLKIEDTGTYYCARDIGTTSDYWGQGVTVTVSSASTKGPSVFPLAPSSKSTSGGTAALGCLVKDYFPEPVTVSWNSGALTSGVHTFPAVLQSSGLYSLSSVVTVPSSSLGTQTYICNVNHKPSNTKVDKKVEPKSCDKTHTCPPCPAPELLGGPSVFLFPPKPKDTLMISRTPEVTCVVVAVSHEDPEVKFNWYVDGVEVHNAKTKPREEQYNSTYRVVSVLTVLHQDWLNGKEYKCKVSNKALPAPIEKTISKAKGQPREPQVYTLPPCRDELTKNQVSLWCLVKGFYPSDIAVEWESNGQPENNYKTTPPVLDSDGSFFLYSKLTVDKSRWQQGNVFSCSVLHEALHNHYTQKSLSLSPGK
light 1: DIQVTQSPSFLSASVGDRVTFNCKTSQNINKYLAWYQAKFGEGPKLLIFNADSLQSGIPPRFSGSGSGTDFTLTISGLQPEDFATYFCLQYNSWPTFGSGTKLEIKRTVAAPSVFIFPPSDEQLKSGTASVVCLLNNFYPREAKVQWKVDNALQSGNSQESVTEQDSKDSTYSLSSTLTLSKADYEKHKVYACEVTHQGLSSPVTKSFNRGEC
heavy 2: EVQLQESGPGLVKPSQSLSLTCSVTGYSITSSYRWNWIRKFPGNRLEWMGYINSAGISNYNPSLKRRISITRDTSKNQFFLQVNSVTTEDAATYYCARSDNMGTTPFTYWGQGTLVTVSSRTVAAPSVFIFPPSDEQLKSGTASVVCLLNNFYPREAKVQWKVDNALQSGNSQESVTEQDSKDSTYSLSSTLTLSKADYEKHKVYACEVTHQGLSSPVTKSFNRGECDKTHTCPPCPAPELLGGPSVFLFPPKPKDTLMISRTPEVTCVVVAVSHEDPEVKFNWYVDGVEVHNAKTKPREEQYNSTYRVVSVLTVLHQDWLNGKEYKCKVSNKALPAPIEKTISKAKGQPREPQVCTLPPSRDELTKNQVSLSCAVKGFYPSDIAVEWESNGQPENNYKTTPPVLDSDGSFFLVSKLTVDKSRWQQGNVFSCSVLHEALHNHYTQKSLSLSPGK
light 2: DIVMTQGTLPNPVPSGESVSITCRSSKSLLYSDGKTYLNWYLQRPGQSPQLLIYWMSTRASGVSDRFSGSGSGTDFTLKISGVEAEDVGIYYCQQGLEFPTFGGGTKLELKASTKGPSVFPLAPSSKSTSGGTAALGCLVKDYFPEPVTVSWNSGALTSGVHTFPAVLQSSGLYSLSSVVTVPSSSLGTQTYICNVNHKPSNTKVDKKVEPKSC
notes: also called RMP1-14 CH-CL X IK22/5 WT bispecific; anti-RANKL/PD-1 bispecific
B3: anti-PD-1 mAb RMP1-14 (rat IgG2a) (antibody, V domains shown)
VH: EVQLQESGPGLVKPSQSLSLTCSVTGYSITSSYRWNWIRKFPGNRLEWMGYINSAGISNYNPSLKRRISITRDTSKNQFFLQVNSVTTEDAATYYCARSDNMGTTPFTYWGQGTLVTVSS
VL: DIVMTQGTLPNPVPSGESVSITCRSSKSLLYSDGKTYLNWYLQRPGQSPQLLIYWMSTRASGVSDRFSGSGSGTDFTLKISGVEAEDVGIYYCQQGLEFPTFGGGTKLELK
notes: Rat IgG2a monoclonal antibody; also called anti-muPD-1 antibody (RMP1-14 rat IgG2a)

Experiments:
[1] = molecular target: T1, mouse RANKL transiently expressed by …; experiment: flow cytometry competition: blocking of biotinylated RANK-Fc binding to muRANKL on transfected HEK-293 cells
Description: FIG. 29 is a graphical representation showing antibody competition of RANKL-RANK binding. HEK-293 cells transiently transfected with mouse RANKL were incubated with various concentrations of either anti-RANKL/PD-1 bispecific, anti-RANKL mAb IK22-5, rat IgG2a isotype control or human IgG1 isotype control for 30 minutes on ice. Secondly, cells were incubated with 2.5 μg of biotinylated recombinant murine RANK-Fc for an additional 30 minutes on ice. After two washes with FACS buffer (PBS+10% FCS), a final incubation with Streptavidin-APC for extra 30 minutes on ice. Samples and data were analyzed on a Fortessa 4 (BD Biosciences) flow cytometer and analyzed with FlowJo v10 software (Tree Star, Inc.). Representative FACS plots and summary data of inhibition of RANK-Fc binding of two independent experiments are shown.

[2] = molecular target: T2, mouse PD-1 transiently expressed by …; experiment: summary sentence of Example 25
[3] = molecular target: T2, mouse PD-1 transiently expressed by …; experiment: flow cytometry competition: blocking of biotinylated PD-L1-Fc binding to muPD-1 on transfected HEK-293 cells
Description: FIG. 31 is a graphical representation showing antibody competition of PD-1/PD-L1 binding. HEK-293 cells transiently transfected with mouse PD-1 were incubated with various concentrations of either anti-RANKL/PD-1 bispecific, anti-PD-1 mAb RMP1-14, rat IgG2a isotype control or human IgG1 isotype control for 30 minutes on ice. Secondly, cells were incubated with 2.5 μg of biotinylated recombinant murine PD-L1-Fc for an additional 30 minutes on ice. After two washes with FACS buffer (PBS+10% FCS), a final incubation with Streptavidin-APC for extra 30 minutes on ice. Samples and data were analyzed on a Fortessa 4 (BD Biosciences) flow cytometer and analyzed with FlowJo v10 software (Tree Star, Inc.). Representative FACS plots and summary data of inhibition of PD-L1-Fc binding of two independent experiments are shown.

Row | Binder | IC50 [1] [µg/mL] | binding result [2] | binding result [3]
1 | B1 | 1.1 | – | –
2 | B2 | 2.6 | binds | –
3 | B3 | – | – | binds
